Data published in article PMC4067145.
Like-named read-outs stand apart in the source and are kept apart here.

Experiments:
Assay in all cases: ITC
[1] = molecular target: human U2A′ protein, truncated form that included the first 180 amino acids (LRR domain) (human) (UniProt P09661)
[2] = molecular target: human U2A′ protein, truncated form that included the first 180 amino acids (LRR domain) (human) (UniProt P09661); remark: listed apart in the source
[3] = molecular target: human U2A′ protein, truncated form that included the first 180 amino acids (LRR domain) (human) (UniProt P09661); remark: listed apart in the source

human U2A′ protein, truncated form that included the first 180 amino acids (LRR domain) (human), sequence (P09661 1-180): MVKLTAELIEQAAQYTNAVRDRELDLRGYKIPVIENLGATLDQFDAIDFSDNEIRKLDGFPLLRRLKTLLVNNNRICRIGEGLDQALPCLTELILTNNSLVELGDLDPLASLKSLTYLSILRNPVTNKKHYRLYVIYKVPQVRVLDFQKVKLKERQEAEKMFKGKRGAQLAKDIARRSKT
full-length human U1A protein, sequence (P09012 whole entry): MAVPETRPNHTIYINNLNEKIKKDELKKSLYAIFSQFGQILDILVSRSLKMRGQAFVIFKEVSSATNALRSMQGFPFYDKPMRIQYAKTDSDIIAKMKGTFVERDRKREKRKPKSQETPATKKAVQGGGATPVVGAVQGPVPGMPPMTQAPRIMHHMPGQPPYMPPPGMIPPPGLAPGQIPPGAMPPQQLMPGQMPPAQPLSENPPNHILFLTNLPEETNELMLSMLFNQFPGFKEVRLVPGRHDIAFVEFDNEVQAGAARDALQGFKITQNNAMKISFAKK

full-length human U1A protein (from UniProt P09012 1-282) (natural protein)
dH [1]: 2 kcal/mol
dH [2]: 2.9 kcal/mol
dH [3]: 2.8 kcal/mol
